Measured values reported in patent US20050153872A1, “Methods and compositions for the treatment of infection” (priority 2004, published 2005).

Assays:
[1] = test system: ATCC 700671 PRSP (S. pneumoniae); test: In vivo protection effects of Ph-SP; design: species or system mice; settings: for Death distribution in hours 24 h / Death distribution in hours 48 h / Death distribution in hours 72 h / Death distribution in hours 96 h / Death distribution in hours 120 h / Death distribution in hours 144 h / Death distribution in hours 168 h / Number of Death: 5 animals
Experimental: To assess the in vivo effect of Ph-SP, mice were injected with ATCC 700671 PRSP intraperitoneally, followed by intravenous injections of PH-SP or controls.
One hour after administration of the fatal dose of ATCC 700671 PRSP (10^5 CFU/ml), each mouse was injected through the tail vein with test agents at three dosages as described in Table 4.

[2] = test system: S. pneumoniae ATCC 700671 (Penicillin-resistant SP); settings: 5 ug/ml
[3] = test system: S. pneumoniae BQIOC 31201 (non-resistant)
[4] = test system: MRSA strain ATCC BAA-42; test: Electron micrographs of bactericidal effects; assay type: cell-based, S. aureus; settings: Ph-SA 50 μg/ml 0.5 hrs; wild type colicin Ia 50 μg/ml 2 hrs; AgrDI 10 μg/ml 2 hrs
Excerpt: Electron Micrographs of Bactericidal Effects of Ph-SA1 Against ATCC BAA-42 MRSA Strain Cells (1% Phosphotungstic Acid. 25,000×)

[5] = test system: vancomycin-sensitive Enterococcus ATCC29212; settings: 3 ug/ml; ATCC 29212 cells

B1: Ph-SP: Colicin Ia linked to ComC pheromone of S. pneumoniae (protein)
chain: SDPVARGITNPGAESLGYDSDGHEIMAVASPIYVASNPPRVASPVFHGTPPAWSSFGNKTIWGGNEWVASPDSPTRSDIEKRDKEITAYKNTLSAQQKENENKRTEAGKRLSAAIAAREKDENTLKTLRAGNADAADITRQEFRLLQAELREYGFRTEIAGYDALRLHTESRMLFADADSLRISPREARSLIEQAEKRQKDAQNADKKAADMLAEYERRKGILDTRLSELEKNGGAALAVLDAQQARLLGQQTRNDRAISEARNKLSSVTESLNTARNALTRAEQQLTQQKNTPDGKTIVSPEKFPGRSSTNHSIVVSGDPRFAGTIKITTSAVIDNRANLNYLLSHSGLDYKRNILNDRNPVVTEDVEGDKKIYNAEVALAEWDKLRQRLLDARNKITSAESAVASNSARNNLSARTNEQKHANDALNALLKEKENIRNQLSGINQKIAEEKRKQDELKATKDAINFTTEFLKSVSEKYGAKAEQLAREMAGQAKGKKIRNVEEALKTYEKYRADINKKINAKDRAAIAAALESVKLSDISSNLNRFSRGLGYAGKFTSLADWITEFGKAVARGTENWRPLFVKTETIIAGNAATALVALALVFSILTGSALGIIGYGLLMAVTGALIDESLVEKANKFWGIEMRLSKFFRDFILQRKK
modifications: colicin Ia attached to streptococcus pneumoniae polypeptide pheromone
B1 was tested, and the “Death distribution in hours 24 h” value ([1]; 5 mg/kg tail vein) was 0, the “Death distribution in hours 48 h” value ([1]; 5 mg/kg tail vein) was 1 and the “Death distribution in hours 72 h” value ([1]; 5 mg/kg tail vein) was 0. The “Death distribution in hours 96 h” value ([1]; 5 mg/kg tail vein) was 0, the “Death distribution in hours 120 h” value ([1]; 5 mg/kg tail vein) was 0 and the “Death distribution in hours 144 h” value ([1]; 5 mg/kg tail vein) was 0. The “Death distribution in hours 168 h” value ([1]; 5 mg/kg tail vein) was 0, the “Number of Death” value ([1]; 5 mg/kg tail vein) was 1 and the “Death distribution in hours 24 h” value ([1]; 10 mg/kg tail vein) was 0. For the same molecule, the “Death distribution in hours 48 h” value ([1]; 10 mg/kg tail vein) was 0, the “Death distribution in hours 72 h” value ([1]; 10 mg/kg tail vein) was 0 and the “Death distribution in hours 96 h” value ([1]; 10 mg/kg tail vein) was 0. The “Death distribution in hours 120 h” value ([1]; 10 mg/kg tail vein) was 0, the “Death distribution in hours 144 h” value ([1]; 10 mg/kg tail vein) was 0 and the “Death distribution in hours 168 h” value ([1]; 10 mg/kg tail vein) was 0. For the same molecule, the “Number of Death” value ([1]; 10 mg/kg tail vein) was 0, the “protection against infection in mice” value ([1]; ATCC 700671 PRSP i.p., agent i.v.) was “prevents streptococcus pneumoniae infection in mice” and the “inhibition of cell growth” value [2] was “more than 90%”. For the same molecule, the “bactericidal effect relative to penicillin on a molar basis” value ([3]; Ph-SP 70,000 daltons vs penicillin 350 daltons) was “two hundred fold greater”.

B2: wild type colicin Ia: wild type colicin Ia, channel forming polypeptide without targeting agent (protein)
chain: MSDPVARGITNPGAESLGYDSDGHEIMAVASPIYVASNPPRVASPVFHGTPPAWSSFGNKTIWGGNEWVASPDSPTRSDIEKRDKEITAYKNTLSAQQKENENKRTEAGKRLSAAIAAREKDENTLKTLRAGNADAADITRQEFRLLQAELREYGFRTEIAGYDALRLHTESRMLFADADSLRISPREARSLIEQAEKRQKDAQNADKKAADMLAEYERRKGILDTRLSELEKNGGAALAVLDAQQARLLGQQTRNDRAISEARNKLSSVTESLNTARNALTRAEQQLTQQKNTPDGKTIVSPEKFPGRSSTNHSIVVSGDPRFAGTIKITTSAVIDNRANLNYLLSHSGLDYKRNILNDRNPVVTEDVEGDKKIYNAEVALAEWDKLRQRLLDARNKITSAESAVASNSARNNLSARTNEQKHANDALNALLKEKENIRNQLSGINQKIAEEKRKQDELKATKDAINFTTEFLKSVSEKYGAKAEQLAREMAGQAKGKKIRNVEEALKTYEKYRADINKKINAKDRAAIAAALESVKLSDISSNLNRFSRGLGYAGKFTSLADWITEFGKAVARGTENWRPLFVKTETIIAGNAATALVALALVFSILTGSALGIIGYGLLMAVTGALIDESLVEKANKFWGI
modifications: E. coli
notes: wild type colicin Ia, channel forming polypeptide without targeting agent
With B2 the “bactericidal effect / effect on cell growth (electron micrographs)” value [4] was “no effect on cell growth”, the “inhibition of cell growth” value ([3]; 5 ug/ml, S. pneumoniae BQIOC 31201) was “did not inhibit growth” and the “inhibition of cell growth” value [5] was “failed to inhibit growth”.
